Where “and” joins values, the source holds several entries; their conditions need not be identical. Identical values can stand only once.
Target: recombinant human tumor necrosis factor alpha (Homo sapiens, UniProt P01375)
Experiment: cell-based or functional assay

Chain of recombinant human tumor necrosis factor alpha (P01375 77-233): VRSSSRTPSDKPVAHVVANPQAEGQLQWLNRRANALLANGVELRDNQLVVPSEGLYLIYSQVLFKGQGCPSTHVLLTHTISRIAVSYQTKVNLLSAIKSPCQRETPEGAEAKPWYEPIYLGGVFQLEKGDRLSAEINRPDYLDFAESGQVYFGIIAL

B1: Haidalimumab (antibody, V domains shown)
VH: EVQLVESGGGLVQPGGSLRLSCAASGFPFSNHWMNWVRQAPGKGLEWVGEIRSKSMNSATHYAESVKGRFTISRDDSKNSLYLQMNSLKTEDTAVYYCARNYYGSTYDHWGQGTLVTVSS
VL: EIVLTQSPDFQSVTPKEKVTITCRASQFVGYSIHWYQQKPDQSPKLLIKYASESRSGVPSRFSGSGSGTDFTLTINSLEAEDAATYYCQQSHSWHFTFGQGTKLEIK
How did the “EC50 of neutralisation of the cytotoxicity of rhTNFα (1 ng/mL, with actinomycin D 2.5 μg/mL) on L929 cells, MTT; one of three antibody batches” value turn out when B1 was run?
The value was 0.0195 µg/mL and 0.018 µg/mL and 0.0158 µg/mL.
